Measurements: PMC7782793, “Hydroxamic acid-modified peptide microarrays for profiling isozyme-selective interactions and inhibition of histone deacetylases” (Nature Communications, 2021)
Residues, ends and D or L forms follow the SMILES beside them.

What was measured:
Assay in all cases: Recombinant HDAC µSPOT microarray binding assay;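 for Bottom (Value): Cellulose-bound peptide spots on slides incubated with six HDAC enzyme concentrations, binding intensity read, four-parameter variable-slope fit, EC50 is enzyme concentration giving half-maximal binding, in HEPES buffer pH 7.4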;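 for Bottom (dose-response curve fit): peptide spots on cellulose slides incubated with rising HDAC enzyme concentrations, imaged together, four-parameter logistic fit, EC50 is enzyme concentration giving half-maximal binding signal, two experiments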;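 for Bottom (dose-response curve fit): relative spot intensity from the six enzyme-concentration slides imaged together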;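 for Bottom (dose-response fit): slides with spotted peptides incubated with six HDAC concentrations in HEPES buffer pH 7.4, spot intensities fitted by four-parameter logistic, EC50 as enzyme concentration giving half-maximal binding signal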;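 for HillSlope (Value): Cellulose-bound peptide spots on slides incubated with six HDAC enzyme concentrations, binding intensity read, four-parameter variable-slope fit, EC50 is enzyme concentration giving half-maximal binding, in HEPES buffer pH 7.4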;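 for LogEC50 (M): slides with spotted peptides incubated with six HDAC concentrations in HEPES buffer pH 7.4, spot intensities fitted by four-parameter logistic, EC50 as enzyme concentration giving half-maximal binding signal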;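 for Top (Value): Cellulose-bound peptide spots on slides incubated with six HDAC enzyme concentrations, binding intensity read, four-parameter variable-slope fit, EC50 is enzyme concentration giving half-maximal binding, in HEPES buffer pH 7.4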;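 for Top (dose-response curve fit): peptide spots on cellulose slides incubated with rising HDAC enzyme concentrations, imaged together, four-parameter logistic fit, EC50 is enzyme concentration giving half-maximal binding signal, two experiments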;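 for Top (dose-response curve fit): relative spot intensity from the six enzyme-concentration slides imaged together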;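 for Top (dose-response fit): slides with spotted peptides incubated with six HDAC concentrations in HEPES buffer pH 7.4, spot intensities fitted by four-parameter logistic, EC50 as enzyme concentration giving half-maximal binding signal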
HDAC3/NCoR2 = target: T1, HDAC3/NCoR2 (Homo sapiens, UniProt O15379); conditions: HDAC3 µSPOT microarray, Fig. 3, X = Asuha; for HillSlope: Hill slope of dose-response fit; for Bottom (dose-response curve fit): fitted bottom plateau of binding signal; for Top (dose-response curve fit): fitted top plateau of binding signal;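 for Bottom (dose-response curve fit): relative spot intensity from the six enzyme-concentration slides imaged together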;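 for Top (dose-response curve fit): relative spot intensity from the six enzyme-concentration slides imaged together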;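 for all read-outs here: peptide spots on cellulose slides incubated with rising HDAC enzyme concentrations, imaged together, four-parameter logistic fit, EC50 is enzyme concentration giving half-maximal binding signal, two experiments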
T1 construct: HDAC3/NCoR2 (full length, C-terminal His tag, NCoR2 N-terminal GST tag); purchased BPS Bioscience 50003

HDAC2 = target: T2, HDAC2 (Homo sapiens, UniProt Q92769); conditions: HDAC2 microarray dose-response curve fit, X = Asuha, sheet Fig. 3 HDAC2; for Bottom (Value): bottom plateau; for Top (Value): top plateau;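 for all read-outs here: Cellulose-bound peptide spots on slides incubated with six HDAC enzyme concentrations, binding intensity read, four-parameter variable-slope fit, EC50 is enzyme concentration giving half-maximal binding, in HEPES buffer pH 7.4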
T2 construct: HDAC2 (full length, C-terminal His tag, BPS Bioscience, cat. #: 50002); purchased BPS Bioscience 50002

HDAC1 = target: T3, HDAC1 (Homo sapiens, UniProt Q13547); conditions: µSPOT microarray, recombinant HDAC1, Fig. 3, X = Asuha; for HillSlope: Hill slope of the binding curve; for Bottom (dose-response fit): fitted bottom plateau of the binding curve; for Top (dose-response fit): fitted top plateau of the binding curve;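 for all read-outs here: slides with spotted peptides incubated with six HDAC concentrations in HEPES buffer pH 7.4, spot intensities fitted by four-parameter logistic, EC50 as enzyme concentration giving half-maximal binding signal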
T3 construct: HDAC1 (full length, C-terminal His tag, C-terminal FLAG tag, BPS Bioscience, cat. #: 50051); FLAG (C); purchased BPS Bioscience 50051
Procedure: (§1) Experiments were performed twice, data were obtained with Array Analyze software (Active Motif), and data analysis and representation were performed with the GraphPad Prism 7 software. Outliers were curated manually and data were fitted to nonlinear regression [log(agonist) vs. response—variable slope (four parameters)]. […] Non-sigmoidal curves were denoted as not determined (N.D.) The pEC50 values were determined as the concentration of HDAC enzyme required for half-maximal binding signal.

HDAC8 = target: T4, HDAC8 (Homo sapiens, UniProt Q9BY41); conditions: HDAC8 µSPOT microarray dose-response fit, X = Asuha, sheet Fig. 3 HDAC8; for Bottom: Bottom Value; for HillSlope: HillSlope Value; for Top: Top Value;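 for all read-outs here: peptide µSPOT slides incubated with varying HDAC enzyme concentrations, imaged signal intensity fitted by four-parameter variable-slope regression, EC50 is enzyme concentration giving half-maximal binding, pH 7.4 HEPES buffer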
T4 construct: HDAC8 (full length, C-terminal His tag, BPS Bioscience, cat. #: 50008); purchased BPS Bioscience 50008
T4 sequence (Q9BY41 1-377): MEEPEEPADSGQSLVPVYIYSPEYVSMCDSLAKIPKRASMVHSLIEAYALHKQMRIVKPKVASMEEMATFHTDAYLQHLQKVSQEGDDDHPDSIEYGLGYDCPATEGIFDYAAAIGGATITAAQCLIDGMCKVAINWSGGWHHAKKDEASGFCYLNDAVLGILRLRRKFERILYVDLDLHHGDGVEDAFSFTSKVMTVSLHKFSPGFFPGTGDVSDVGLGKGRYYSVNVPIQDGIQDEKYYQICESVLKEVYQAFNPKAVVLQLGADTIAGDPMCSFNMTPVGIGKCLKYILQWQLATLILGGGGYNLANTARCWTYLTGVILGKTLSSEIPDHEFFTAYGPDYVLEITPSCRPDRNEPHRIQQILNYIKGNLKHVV
Procedure: as §1

T3 sequence (Q13547 whole entry): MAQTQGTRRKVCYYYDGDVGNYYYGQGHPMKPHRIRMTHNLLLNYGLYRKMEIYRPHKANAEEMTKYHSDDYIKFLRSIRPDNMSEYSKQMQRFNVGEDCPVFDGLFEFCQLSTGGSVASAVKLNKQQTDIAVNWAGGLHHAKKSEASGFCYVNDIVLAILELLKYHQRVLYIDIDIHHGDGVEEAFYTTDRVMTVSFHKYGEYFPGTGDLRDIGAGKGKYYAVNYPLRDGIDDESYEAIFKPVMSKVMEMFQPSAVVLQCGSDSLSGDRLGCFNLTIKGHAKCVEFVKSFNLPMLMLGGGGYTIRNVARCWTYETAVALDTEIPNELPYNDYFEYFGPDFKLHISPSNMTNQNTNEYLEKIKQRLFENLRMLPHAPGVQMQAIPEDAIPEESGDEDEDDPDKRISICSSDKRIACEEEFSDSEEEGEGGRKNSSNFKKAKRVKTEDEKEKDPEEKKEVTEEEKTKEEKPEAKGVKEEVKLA
T1 sequence (O15379 whole entry): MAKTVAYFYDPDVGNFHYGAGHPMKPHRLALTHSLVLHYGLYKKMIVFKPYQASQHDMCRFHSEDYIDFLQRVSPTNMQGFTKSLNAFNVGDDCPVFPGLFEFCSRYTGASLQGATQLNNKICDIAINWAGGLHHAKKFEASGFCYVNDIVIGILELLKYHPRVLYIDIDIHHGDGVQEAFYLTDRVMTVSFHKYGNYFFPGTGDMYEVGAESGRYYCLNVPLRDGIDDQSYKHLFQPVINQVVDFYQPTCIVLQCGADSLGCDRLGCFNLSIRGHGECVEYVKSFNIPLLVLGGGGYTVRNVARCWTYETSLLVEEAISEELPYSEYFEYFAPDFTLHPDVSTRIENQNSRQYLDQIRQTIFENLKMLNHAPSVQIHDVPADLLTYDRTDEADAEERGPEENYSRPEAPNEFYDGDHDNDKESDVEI
T1 sequence (Q9Y618 389-480 partner limits assumed): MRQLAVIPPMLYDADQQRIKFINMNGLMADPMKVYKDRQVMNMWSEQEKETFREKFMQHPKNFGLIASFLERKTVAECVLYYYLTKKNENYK
T2 sequence (Q92769 whole entry): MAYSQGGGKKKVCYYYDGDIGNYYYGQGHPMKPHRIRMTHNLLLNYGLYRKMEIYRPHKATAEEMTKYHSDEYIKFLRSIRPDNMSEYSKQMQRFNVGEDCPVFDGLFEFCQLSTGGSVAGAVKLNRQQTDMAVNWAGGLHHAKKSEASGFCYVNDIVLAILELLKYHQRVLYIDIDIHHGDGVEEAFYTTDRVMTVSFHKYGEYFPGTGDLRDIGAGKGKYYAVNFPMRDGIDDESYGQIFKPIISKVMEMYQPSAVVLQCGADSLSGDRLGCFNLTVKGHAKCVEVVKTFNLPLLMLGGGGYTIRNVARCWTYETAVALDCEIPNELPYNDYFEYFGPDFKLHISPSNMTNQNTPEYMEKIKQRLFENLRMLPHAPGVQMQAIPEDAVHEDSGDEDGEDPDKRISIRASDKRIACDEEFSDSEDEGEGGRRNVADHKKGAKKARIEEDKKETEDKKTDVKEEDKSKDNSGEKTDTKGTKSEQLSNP

Row | Compound | HillSlope (HDAC3/NCoR2) | Bottom (dose-response curve fit) (HDAC3/NCoR2) | Top (dose-response curve fit) (HDAC3/NCoR2) | Bottom (Value) (HDAC2) | Top (Value) (HDAC2) | HillSlope (Value) (HDAC2) | HillSlope (HDAC1) | Bottom (dose-response fit) (HDAC1) | Top (dose-response fit) (HDAC1) | Bottom (HDAC8) | HillSlope (HDAC8) | Top (HDAC8) | LogEC50 (M) (HDAC1; values are log10 of EC50 in M)
1 | CC[C@H](C)[C@H](NC(=O)[C@H](C)NC(=O)[C@H](CC(C)C)NC(=O)[C@H](CCC(N)=O)NC(=O)[C@H](CC(C)C)NC(=O)[C@H](Cc1c[nH]cn1)NC(=O)[C@H](CCCNC(=N)N)NC(=O)[C@@H]1CCCN1C(=O)[C@@H](NC(=O)[C@@H](NC(=O)[C@H](CCCNC(=N)N)NC(=O)[C@@H](NC(C)=O)[C@@H](C)O)[C@@H](C)CC)[C@@H](C)CC)C(=O)N[C@@H](CCCNC(=N)N)C(=O)N[C@@H](CC(N)=O)C(=O)N[C@@H](CC(=O)O)C(=O)N[C@@H](CCC(=O)O)C(N)=O [H2A 76-91] (Ac-TRIIPRHLQLAIRNDE-NH2) | 1.12 | 0.01 | 1.3 | 0.03 | 73.18 | 0.93 | 0.92 | 0.02 | 2.64 | 0.03 | 7.33 | 0.15 | 
2 | CC[C@H](C)[C@H](NC(=O)[C@H](CCC(=O)O)NC(=O)[C@H](CCCNC(=N)N)NC(=O)[C@H](CO)NC(=O)[C@@H](NC(=O)[C@@H](NC(=O)[C@@H](NC(C)=O)[C@@H](C)O)[C@@H](C)CC)[C@@H](C)O)C(=O)N[C@@H](CCC(N)=O)C(=O)N[C@H](C(=O)N[C@@H](C)C(=O)N[C@H](C(=O)N[C@@H](CCCNC(=N)N)C(=O)N[C@@H](CC(C)C)C(=O)N[C@@H](CC(C)C)C(=O)N[C@@H](CC(C)C)C(=O)N1CCC[C@H]1C(N)=O)C(C)C)[C@@H](C)O [H2B 88-103] (Ac-TITSREIQTAVRLLLP-NH2) | 1.33 | 0.01 | 0.74 | 0.04 | 0.21 | 1.75 | 1.19 | 0.05 | 1.11 | 0.03 | 10.85 | 0.09 | 
3 | H2A 16-31 (TRSSRAGLQFPVGRVH; microarray-immobilized; UniProt P0C0S8 17-32, looked up, fragment) | 0.97 | 0.01 | 0.73 | 0.04 | 3.35 | 1.17 | 1 | 0.03 | 1.15 | 0.05 | 6.81 | 0.12 | -7.63
4 | H2A 19-34 (SRAGLQFPVGRVHRLL; UniProt P04908 20-35, looked up, fragment) | 1.37 | 0.02 | 0.67 | 0.04 | 76.12 | 0.81 | 0.75 | 0.02 | 2.31 | 0.05 | 8.22 | 0.14 | 
5 | H2A 37-52 (GNYSERVGAGAPVYLA; UniProt P04908 38-53, looked up, fragment) | 0.78 | 0 | 0.79 | 0.01 | 3.9 | 0.79 | 0.92 | 0.01 | 6.54 | 0.01 | 7.44 | 0.07 | 
6 | H2A 40-55 (AERVGAGAPVYLAAVL; UniProt P0C0S8 41-56, looked up, fragment) | 1.44 | 0 | 0.3 | -0.05 | 0.06 | 0.08 | 0.82 | 0.02 | 5.13 | 0.01 | 2.67 | 0.08 | 
7 | H2A 46-61 (GAPVYLAAVLEYLTAE; UniProt P0C0S8 47-62, looked up, fragment) | 1.43 | 0.01 | 0.51 | 0.01 | 27.24 | 0.62 | 1.25 | 0.02 | 0.24 | 0.02 | 0.58 | 21.03 | 
8 | H2A 49-64 (VYLAAVLEYLTAEILE; UniProt P0C0S8 50-65, looked up, fragment) | 1.38 | 0 | 0.57 | 0.02 | 0.44 | 0.89 | 1.26 | 0.01 | 0.2 | 0.02 | 0.49 | 6.68 | 
9 | H2A 55-70 (LEYLTAEILELAGNAA; UniProt P0C0S8 56-71, looked up, fragment) | 1.26 | 0 | 0.64 | 0.01 | 2.34 | 0.64 | 1.43 | 0.02 | 0.27 | 0.02 | 0.59 | 3.05 | 
10 | H2A 79-94 (IPRHLQLAIRNDEELN; UniProt P0C0S8 80-95, looked up, fragment) | 1.48 | 0.01 | 0.69 | 0.02 | 40.23 | 1.01 | 1.08 | 0.02 | 19.1 | 0.02 | 7.17 | 0.12 | 
11 | H2A 100-115 (VTIAQGGVLPNIQAVL; UniProt P0C0S8 101-116, looked up, fragment) | 1.35 | 0 | 0.72 | 0.02 | 9.23 | 0.88 | 1.46 | 0.02 | 0.26 | 0.02 | 0.63 | 7.44 | 
12 | H2B 58-73 (AMGIMNSFVNDIFERI; UniProt P06899 59-74, looked up, fragment) | 1.96 | 0.02 | 0.22 | 0.03 | 0.16 | 2.23 | 0.92 | 0.02 | 1.87 | 0.01 | 0.19 | 6.07 | 
